Measured values published in a protein production outcome set (Wang et al. 2014).

Assay: label from the status in PepcDB records

MMNYNTPKVSIVVPSLNSISYIRECIDSILNQTLKDIEILCIDANSTDGTLEVLKNYEKKDKRLRVIISDKKSYGYQMNLGIKEAKGEYLGIVESDDYIKTNMYERLYEIAKKNDCEVVKGDFYILESNKGKYSKITPIDFLYNQIISFKTHPNIFNFQSINPIGIYRLDLLRTNQIKLNETPGASYQDNGLWFQIFALAKSIYFINEAFYMLRRDNPNSSVKSKEKVYCACEEYDFIRDFLKKHPDLEKTLAPICALHRFGNYMFTLERIDERYKLDFLKRFSQDFRKILKDKELDENLFGDGDMKIIYSIVENPENYYFLYMGYCNDMFGKLYFGASERIKWQLSYRIGKLLIDLKNPVQILKFPFKLFLEIKQFKFEQKIYKTTIKFYPNLQLPPLEEYSDYEQALKTKKHLSYILGKSFINNPILFIFKIKKIYKQYKKDISSSKKNIKELSDYDFLLNRHKQIFDYTPDFKCPVTFNEKLIYRILYDRSCIYSFLADKIKMRFYVASALSDNHEYSWDKIDILNEKSILFNNIDDLQDKIFETNKCKYLPKIYGIYKNIYDINFNELPNSFVLKTNHDCGGYVIVENKQEFLRDTVVFSNAMKKLKKHLEWNYYSVFREWHYKDIEPRVFAEELLLGENKKPADTYKFHIFDKENLSNNFIQVTTDRFDNYQRAMFDLSWNLAPFNFMYDNKNVTMIPKKPNLLDSMINISLILAKPFDYVRVDLYQFDKKIYIGELTFTHGAAGEKVIPKEWDKKLGDLWRLKRLDNASK
protein production: failed

MITTRTARQCGQADYGWLQARYTFSFGHYFDPKLLGYASLRVLNQEVLAPGAAFQPRTYPKVDILNVILDGEAEYRDSEGNHVQASAGEALLLSTQPGVSYSEHNLSKDKPLTRMQLWLDACPQRENPLIQKLALNMGKQQLIASPEGAMGSLQLRQQVWLHHIVLDKGESANFQLHGPRAYLQSIHGKFHALTHHEEKAALTCGDGAFIRDEANITLVADSPLRALLIDLPV
protein production: not failed

MSAPADRSFAIERIFNAPVERVFRLWTDPLLVAQWWGIRDCTIPLCVLDVRVGGRWRIDMLTAGGALYRNQGSYLEVVENVRLSYRDEPDPEIREWAGKPPGRSRHTVSFTASGARTHVHFEVTLATAADRERLLALGMRGGWMQSFDRLEQLIGKGADHAG
protein production: failed

MVIDQTDPIYVLFHDEEWGVPVRDDKKLFELLVFSQALAEFSWPSILRRRDDFRKLFEEFDPSAIAQFTEKRLMSLRVNGCLILSEQKLRAIVENAKSVLKVKQEFGSFSNYCWRFVNHKPLRNGYRYGRQVPVKSPKAEYISKDMMQRGFRCVGPTVMYSFLQASGIVNDHLTACFRYQECNVETERETKSHETETKLDLHSPLLV
protein production: failed

MDKKKHSLKAPVMTHRAFLALAIPLIFSAMTTPLIGAVDTAIVGHLQDPALIGGVAVGALIFNTMYWLFGFLRVSTSGFSAQALGRKKEDDIMLAFVRPFLLAMFVGLSFILLQHPIKSASLLIISPPEHVGLFAEQYVAIRIWGAPFALISYVVIGWLMGIGRIRGAVTIQIGTNLLNVALDFLFVYWMQWGIGGVAAASLIAEVTGAVAGCLFVLRCYSFSVFSSLTQVLDKRPILHMLTVNRDLFIRTICLLTVLTTFTSIGARFGEVSLAANAILLQLHYLMAYMFDGVANAASIVVGRSVGARDRSLFERVVRLDIVWSSVICLWLVCTLGLMKEPIIALFTSIPAVQAETLQLFGWIMLFPIAGFWGLQLHGMFSGATVARPIRQSMIIAMLVFLISCWLFVPLWGNNGLWLSFIVFTIARSMTLHLSYPALQRLFHDKERSIGA
protein production: failed

MRIPHHLSRSPTGRWSFVQRVPVDLQTVMGCRLIKRTLQTKDLAQAHVRAVVLGAGYARLFAQLTDQRVDKLSKTDADLLIARLTSAENLQDLTLNRTRQPDGTVTEQWQIDSPKDLKLYRQLMELEAMAGAALQARAHPVAVPTMFGSTHAGPSRQSSAPAIETMTLGKARDAFLATLKGSTLPKTYTIKKTAIEALVSFLGPTMKVHAITRSDLARWYQDMREKGASTPTLTNKQSYIGGRGGFFEWAMASGHYPKGDNPASGHVSYSQREKRARKKLGFKAYDRAQIQALFAPEALAKLSESARWASFLGLYTGARASEVGQLLVKDVFEEDGIPCIRISDEGEHQKVKTEVSLRTVPLHPELLKMGFLEWVGGKRKVGETRLFPAAKATAVNGQGNWITKAFSRHLAEVGKNWEPAKRGFHSLRKTLIQELQGAGVVSELRAQIVGHELDDEHHSTYGRDFTVVEKLRGLGPHSPGISRLSFFQ
protein production: failed

GSAEILVPEVYHGPGKRGTGFYNADQKINRDITIEFIKKMGIRNVLDGFGGTGIRGIRISKETDSAVTISEVSPDSYRLIRDNVERNGSQASVINDSFECVLQHGAYEYVDVDPYGSPVPYLDAALMGVKRNGFLGVTATDQSALTGSVPHKTRIRYDALIKNDTFRHEMGIRLLIGYMAKRAASLGRFIDPLISIWHGHYYRVFVRVRKGFEGAGRMMQNLGYVNKHNLLSGIYQDMDEGPVWKGNLQDNAVAEAVLASAGHKAFNPEENRLLFCDLTDIARARHTSLPDIESVIDALSSSGHAASRTMFSPTGIKTDASCDLVESLMMDTLHRRS
protein production: failed

MILSLCCLGSWPAILTLLERRGRLPQHTFLDFATANLLAAIVIAFSLGEIGKSTFLKPDFTTQLPQDNWPSVLLAVAGGVLLSIGNLATQYAFAFVGLSVTEVITASITVVIGTTLNYFLDNKINKAEILFPGVGCFLIAVFLGAAVHASNAADVKEKLKSLPSEDLYSSIENGEDKPEIEKTDVESQEKLAEKAKAGTAGFYVELENKRAIKVFGKSIMIGLFITLFAGISLSLFSPAFNLATNDQWSTLPKGVPKLVVYTAFFYFSIAGFLISLILNLIFLYRPMVGLARSSLKKYIYDSKGRGWAVFAGFLCGFGNGLQFMGGQAAGYAAADSVQALPLVSTFWGIVLFGEYRKSSKRTYALLVSMLAMFVAAVAILMASSGHRK
protein production: failed

MENGLWEVLGSKGLLKKHEFIRILVQCLYSLGFKNSASCLEFESKILYKTADSEFLEKQVLSGNWDSCVQVLDRIFDNSMDDTRNTALYLVFKQCLLEYLKRGDVSLALNVLRKQAPLLRMGKEKIHRLACDIVYSKEMESGEVDNCLVLDLRRKLLVELEKLIPLPIVIPERRLEHLVETAVMDQIDTCMYHNSCDAVSLYKDHCCGRDQIPSETVQILVAHKNEVWFVQFSNSGKYLATASSDCTAIIWKVLDDNKVELKHTLESHQNPVSFVSWSPDDTKLLTCGNAEVLKLWDVDTGVLRHTFGNNNTGFTVSSCAWFPDSTRLVCGSSDPERGIVMWDTDGNEIKAWRGTRIPKVVDLAVTPDGESMITVFSDKEIRILNLETKVERVISEEQPITSLSISGDGKFFIVNLSCQEIHLWDLAGEWKQPLKFSGHRQSKYVIRSCFGGLDSSFIASGSEDSQVYIWNLKNTKPLEVLSGHSMTVNCVSWNPKNPRMLASASDDQTIRIWGPGKPNKPLN
protein production: failed

MNDLVESLIYEVNNMQQNFENVKSQQQDHDFYQTVKPYTEHIDSILNEIKLHREFIIEVPYMNSRKFELLIANIEQLSVECHFKRTSRKLFIEKLKSVQYDLQNILDGVTKEGTDG
protein production: not failed

MSNVSALPIQPETTPSGGGSVRDRVSPQEWEVRVKLAAAYRLAALKRWTDHIYTHFSARVPGPDEHFLINAFGLLFDEITASNLVKVDIDGTIVDDPTGLGINYAGYVIHSAIHAARHDLQAVLHTHTRDGIAVSAQKGGLLPISQHSIAFSGRVAYHGYEGIALDLSERERLVADLGDKSVMILRNHGLLTGGVSVEHAFQQLHALEYACNIQIAAQSAGNDELVFPPQEVIARVEEQAKVIKDGHGPGVARHWNALIRELERSGTDYRE
protein production: failed

MSLTNSSKSFTKFMAASAVFTMGFLSVPTAGAEQTNQIANKPQAIQWHTNLTNERFTTIAHRGASGYAPEHTFQAYDKSHNELKASYIEIDLQRTKDGHLVAMHDETVNRTTNGHGKVEDYTLDELKQLDAGSWFNKKYPKYARASYKNAKVPTLDEILERYGPNANYYIETKSPDVYPGMEEQLLASLKKHHLLNNNKLKNGHVMIQSFSDESLKKIHRQNKHVPLVKLVDKGELQQFNDQRLKEIRSYAIGLGPDYTDLTEQNTHHLKDLGFIVHPYTVNEKADMLRLNKYGVDGVFTNFADKYKEVIKEGHHHHHH
protein production: not failed

MALPIIVKWGGQEYSVTTLSEDDTVLDLKQFLKTLTGVLPERQKLLGLKVKGKPAENDVKLGALKLKPNTKIMMMGTREESLEDVLGPPPDN
protein production: failed

MMTCDEIRLPKPPRLQPFLFLLRNDSLSKYSQPPRFDLARILFSLVFITIMIIACFWVVQPFILGFAWACMVVIATWPMLIKFQALLWGRRSLAVLVMTLLLILLFVVPIAVLVSSVIDNSSALMSWGSRQENLSPPTLEWLTSIPLVGEKLFNSWQALLQSGGSGLFAKVQPYFGKTATWLVAQAAHVGRFLMHCSLMLIFSALLYYKGEAVAKAVRHFAIRLGRERGDAAVILAAQSIRAVALGVVVTAIVQSVLGGIGLGLSGIPYTTLLTVLMFLCCLAQLGPLLVLIPAIIWLYWTGDNTWGTILLVWSCVVGTIDNVIRPMLIRMGADLPMLLILSGVIGGLLAFGMIGLFIGPVVLAVSYRLLFAWMREIPEPQNLLSVNTTKTPNKES
protein production: failed

DHLILLPGWGLGSAPLEPLRDALHEREPHLNVLIEPLPSLDDAADWLDELDDNLPRDSWLAGWSLGGMLAGELAARRGDDCRGLLTLASNPCFRVREDWPNAMPAETFEDFFEAFLLEPHLTRKRFTLLVSQGARDPRTLARQLQVALPQLEREALVAGLQLLGQLDTRAALENFRGPQLHLFAEADALVPLAAAEALLEWLPDVEVSTLAASHGLPLECPDEVAGAILRFLRE
protein production: failed

MIFENRLALSAMAGVNNAEFCRKQKASLVILGGFNADRRALEAAEKAVKRGRKEFLFGIDGIEGEIKKLGRRKFAVNVRSSSLEGYLNVAELVAEFEGIIEINAHCRQPEFVEIGCGEWLLFNHERLVEIVSKTSRIAPTFVKIRGGHKLDYEKIARKLFDAGCLAIHVDAMIPGGGCDFSLIERISRIGNVIGNNSFVDIESGERIIMAGAKMASAARAVLRDENFFEKMLRSPLLSQPVELSCGRFRLEHHHHHH
protein production: not failed

MRHVSNGDPVRVVIVTDGAYGAPAESGDYAQTRRRESTRAAAILGYGAPEFWNLPDRGLEYGERLIQRVLTAMEDHAAELVYAPSWWEVHPDHRVLALAATEAVRRCTRPLRLAMYEVGVPLQPNALLDITDLAERKASAVACFSSQLAQQDYDEQIASLNRFRTYTLPRTVRAAEGYLVLAAEELRNRIPRMMTQKDRLAVRGETGDTAATPLVSVIIPSMDGPRLKEALDSVALQTYPRIEAVVIDAKGEGHTPLPRWCGRFPLRFIPSDISLSRGRAADVGLEHAEGDYLVFLGEDDVFQPGDVASLVAEAARKQGTGLCSHADRRMTVFSGGVVDGSPRTGKPGKPAFLPLHAVLFDRSLAELRCRFDGDANVPEDGDFWDQAMQHVASIHPGACRHGHGLPGGEAGRHTIVRLPPWTSPAPLPPGASLARTPHPTERDSLRRRIQRAGRRIYETPPRGLTDALVRTAYRIWARLSSDSMITNDGKGTLEHHHHHH
protein production: failed

MISASWKSAGKTTVSLGLLRLLAENGVPVVSFKKGPDYIDPMWHRVASSGECYNLDTWMMGEAACRDTFIRNCARRPGSIALIEGNHGLHDGMDMAGADSSAGLAALLDAPVLLVIDSRRMNRGVAAQVLGLQAMPPKVRIAGVILNHVTSSRQESKQRAAIETFCNVPVLGAIPADSSLLLPERHLGLVTVGEASDAEAFIRVAAQQVERHCDFAAIRKLFEEASPLSHSEPREVFSPKKEATVKIGVFRDAAFCFYYPDNLDALRDAGAELVFIDTFKTTALPEIDGLYLGGGFPESFFAELSANTSLLRDMRGRIEAGIPAWAECGGLIYLCRSATWEGRQWPLASVLPIDIAYQRKPAGCGYLELESRAGSGWFPVGERVRAHEFHYSKPVAGNVDLACQFDVARGFGLTGREDGLLYRNLFASYAHFHAAANPGWAERFVGLALKFKEQGRLERD
protein production: failed

MTKPLILASQSPRRKELLDLLQLPYSIIVSEVEEKLNRNFSPEENVQWLAKQKAKAVADLHPHAIVIGADTMVCLDGECLGKPQDQEEAASMLRRLSGRSHSVITAVSIQAENHSETFYDKTEVAFWSLSEEEIWTYIETKEPMDKAGAYGIQGRGALFVKKIDGDYYSVMGLPISKTMRALRHFDIRA
protein production: not failed
